We go through four substances from patent publication US20080045697A1.

The target in assay [1] is complement C3b (UniProt P01024). Kind of assay: cell-based or functional assay.
Assay [2] shares this target. As to the kind of experiment: competition ELISA: CRIg protein against CRIg-LFH on plate-coated C3b, anti-FLAG detection. (In general: ELISA stands for enzyme-linked immunosorbent assay.)

Where only a bound is given, the exact number is not on record here.

In the assay with complement C3b [1], “CRIg-Fc (from UniProt Q9Y279 20-283) (Fc fusion)” had an inhibition of hemolysis of rabbit erythrocytes in C1q deficient serum (alternative pathway) of 127 nM.
Take “CRIg mutant B (H57A Q59A) (from UniProt Q9Y279 20-399) (receptor)”: in the assay with complement C3b [2], the fold increase of IC50 compared to wt CRIg was found to be 100 fold.
In the assay with complement C3b [1], “CRIg (soluble, construct not stated) (from UniProt Q9Y279 20-189) (receptor)” gave an inhibition of C5b-9 deposition through the alternative pathway (LPS-coated plate, C1q deficient serum) of 1.49 µM.
Substance “CRIg mutant A (E85A M86A) (from UniProt Q9Y279 20-399) (receptor)” had a fold increase of IC50 compared to wt CRIg in the assay with complement C3b [2] of over 10000 fold.
